Laboratory results as given in patent US20020103111A1 (Takeda / Millennium, published 2002).
Bridge positions count the residues as written; N and C are the ends. Ends that are not written are not given here. R1 = not defined here

B1: Ac-Cys*-Gly-Leu-Asp-Thr-Ser-Leu-Gly-Cys* (peptide)
peptide: Ac-CGLDTSLGC
modifications: disulfide 1-9; not fully specified (C-terminus); printed as Ac-Cys*-Gly-Leu-Asp-Thr-Ser-Leu-Gly-Cys*
notes: also called Ex No 5; 00145-1B
B2: R1-Leu-Asp-Thr-Ser-Leu, L# 1276 (Table 4) (peptide)
peptide: R1-LDTSL
modifications: reading uncertain; also: printed as R1-Leu-Asp-Thr-Ser-Leu
notes: not tied

How the values were obtained:
human α4β7 integrin [1] = biological target: T1, human α4β7 integrin (human, UniProt P13612 34-1032; P26010 20-798); experiment: inhibition of HUT 78 cell adhesion to murine MAdCAM-1/mCk
T1 construct: whole, on cells; assays run with Mn++; also called α4β7 on HUT 78 cells; α4β7 on RPMI 8866 cells
Experimental: The assay was performed in a 96-well format. Plates were coated overnight at 4° C. with 53 μl/well of a 5 μg/mL solution of rat anti-mCk in carbonate buffer. The plates were blocked for 1 hour at 37° C. with 100 μL/well of 1% BSA in PBS. The BSA/PBS solution was removed, and 50 μL of MAdCAM-mCk supernatant was added neat to each well. The assay was conducted under conditions in which capture antibody was the limiting reagent.
Cell adhesion was measured in the presence or absence of compounds. The compounds were resuspended in 100% DMSO, subsequently diluted 1:10 in water, and finally diluted again 1:10 in the assay: 50 μL of 2X Assay Bufler, 30 μL water, 20 μL of compound were added to each well.
Over this range, Four different concentrations were tested in duplicate.

human α4β7 integrin [2] = biological target: T1, human α4β7 integrin; experiment: inhibition of RPMI 8866 cell adhesion to huMAdCAM-1-Ig

Row | Binder | IC50 (human α4β7 integrin [1]) [µM] | IC50 (human α4β7 integrin [2]) [µM]
1 | B1 | 266 | 
2 | B2 |  | 2.7
